According to patent US20220017863A1 (H LEE MOFFITT CANCER CENTER AND RESEARCH INSTITUTE, published 2022):

B3: Sirt2 (enzyme, mouse, UniProt Q8VDQ8 2-389, looked up)
chain: AEPDPSDPLETQAGKVQEAQDSDSDTEGGATGGEAEMDFLRNLFTQTLGLGSQKERLLDELTLEGVTRYMQSERCRKVICLVGAGISTSAGIPDFRSPSTGLYANLEKYHLPYPEAIFEISYFKKHPEPFFALAKELYPGQFKPTICHYFIRLLKEKGLLLRCYTQNIDTLERVAGLEPQDLVEAHGTFYTSHCVNTSCRKEYTMGWMKEKIFSEATPRCEQCQSVVKPDIVFFGENLPSRFFSCMQSDFSKVDLLIIMGTSLQVQPFASLISKAPLATPRLLINKEKTGQTDPFLGMMMGLGGGMDFDSKKAYRDVAWLGDCDQGCLALADLLGWKKELEDLVRREHANIDAQSGSQAPNPSTTISPGKSPPPAKEAARTKEKEEQQ
notes: Endogenous protein immunoprecipitated from T cell lysates with anti-Sirt2 (Sigma #9441); also called Sirtuin 2

Experiments:
Sirt2 = biological target: B3; test: co-IP/immunoblot and reverse co-IP/immunoblot, activated WT mouse CD3+ T cell extracts
pyruvate kinase M (PKM) = biological target: T1, pyruvate kinase M (PKM) (mouse, UniProt P52480 1-531, limits assumed); test: reverse co-IP with antibody to the enzyme, anti-Sirt2 immunoblot, activated WT mouse CD3+ T cell extracts (FIG. 3C)
T1 construct: also called PKM1/2; pyruvate kinase isozymes M1/M2

aconitase 2 (ACO2) = biological target: T2, aconitase 2 (ACO2) (mouse, UniProt Q99KI0 28-780); test: co-IP/immunoblot and reverse co-IP/immunoblot, activated WT mouse CD3+ T cell extracts
T2 sequence (looked up): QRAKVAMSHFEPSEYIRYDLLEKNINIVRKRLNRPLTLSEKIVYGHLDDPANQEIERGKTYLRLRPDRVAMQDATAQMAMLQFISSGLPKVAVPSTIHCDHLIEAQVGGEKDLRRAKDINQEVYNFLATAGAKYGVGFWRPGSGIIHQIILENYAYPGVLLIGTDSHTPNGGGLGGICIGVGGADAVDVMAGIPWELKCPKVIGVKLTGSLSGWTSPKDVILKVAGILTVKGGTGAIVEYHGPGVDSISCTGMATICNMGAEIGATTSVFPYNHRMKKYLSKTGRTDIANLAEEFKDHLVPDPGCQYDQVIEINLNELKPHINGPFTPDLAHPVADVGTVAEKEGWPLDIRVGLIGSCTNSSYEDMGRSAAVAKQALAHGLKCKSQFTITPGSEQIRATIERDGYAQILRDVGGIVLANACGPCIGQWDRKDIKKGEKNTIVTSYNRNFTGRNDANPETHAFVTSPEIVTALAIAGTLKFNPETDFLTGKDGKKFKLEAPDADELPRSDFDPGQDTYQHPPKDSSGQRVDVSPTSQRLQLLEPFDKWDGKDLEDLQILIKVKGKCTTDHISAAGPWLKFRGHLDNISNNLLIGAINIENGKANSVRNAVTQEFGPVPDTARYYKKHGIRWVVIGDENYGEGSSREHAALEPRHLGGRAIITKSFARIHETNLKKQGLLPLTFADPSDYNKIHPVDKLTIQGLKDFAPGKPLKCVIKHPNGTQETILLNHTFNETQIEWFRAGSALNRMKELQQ

[1] = biological target: T3, oxoglutarate dehydrogenase (OGDH) (mouse, UniProt Q60597 41-1023, limits assumed); test: as above
T3 construct: Endogenous protein in lysate
T3 sequence (looked up): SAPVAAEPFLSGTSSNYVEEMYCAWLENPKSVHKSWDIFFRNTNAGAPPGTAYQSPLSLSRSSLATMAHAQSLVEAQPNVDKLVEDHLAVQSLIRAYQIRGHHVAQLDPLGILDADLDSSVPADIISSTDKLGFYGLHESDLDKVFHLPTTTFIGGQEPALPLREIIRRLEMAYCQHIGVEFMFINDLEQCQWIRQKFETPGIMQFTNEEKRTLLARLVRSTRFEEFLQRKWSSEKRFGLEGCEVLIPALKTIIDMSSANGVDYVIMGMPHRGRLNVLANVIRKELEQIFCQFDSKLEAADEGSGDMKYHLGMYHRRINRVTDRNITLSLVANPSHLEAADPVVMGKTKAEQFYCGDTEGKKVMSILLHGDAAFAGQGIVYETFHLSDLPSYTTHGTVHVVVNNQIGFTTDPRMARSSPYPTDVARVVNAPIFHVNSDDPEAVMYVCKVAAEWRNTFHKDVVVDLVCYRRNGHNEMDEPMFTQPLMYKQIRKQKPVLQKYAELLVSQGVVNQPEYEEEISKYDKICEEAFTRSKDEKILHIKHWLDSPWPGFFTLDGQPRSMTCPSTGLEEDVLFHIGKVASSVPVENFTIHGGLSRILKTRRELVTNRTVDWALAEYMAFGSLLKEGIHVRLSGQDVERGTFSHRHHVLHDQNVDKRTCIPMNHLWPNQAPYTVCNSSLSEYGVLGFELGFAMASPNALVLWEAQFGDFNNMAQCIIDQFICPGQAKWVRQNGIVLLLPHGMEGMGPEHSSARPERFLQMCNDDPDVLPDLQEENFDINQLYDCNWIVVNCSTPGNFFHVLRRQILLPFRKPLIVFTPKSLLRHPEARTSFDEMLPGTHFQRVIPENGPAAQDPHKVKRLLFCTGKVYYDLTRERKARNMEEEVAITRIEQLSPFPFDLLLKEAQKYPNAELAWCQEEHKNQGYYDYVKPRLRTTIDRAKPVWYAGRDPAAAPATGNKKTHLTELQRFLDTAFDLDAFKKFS

[2] = biological target: T4, phosphoglycerate kinase 1 (PGK1) (mouse, UniProt P09411 2-417); test: as above
T4 sequence (looked up): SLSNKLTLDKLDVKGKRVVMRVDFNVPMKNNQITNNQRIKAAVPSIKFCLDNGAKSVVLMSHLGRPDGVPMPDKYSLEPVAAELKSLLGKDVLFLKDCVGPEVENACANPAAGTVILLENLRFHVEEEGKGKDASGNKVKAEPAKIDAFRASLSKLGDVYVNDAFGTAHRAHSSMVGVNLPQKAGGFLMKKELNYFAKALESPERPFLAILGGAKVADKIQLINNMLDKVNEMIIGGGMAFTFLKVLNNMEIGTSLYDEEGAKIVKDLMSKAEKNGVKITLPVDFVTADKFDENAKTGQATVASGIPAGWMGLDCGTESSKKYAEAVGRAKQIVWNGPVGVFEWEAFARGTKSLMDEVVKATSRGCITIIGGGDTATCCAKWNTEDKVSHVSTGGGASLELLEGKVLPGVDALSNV

[3] = biological target: T5, phosphofructokinase P (PFKP) (mouse, UniProt Q9WUA3 1-784); test: as above
T5 sequence (looked up): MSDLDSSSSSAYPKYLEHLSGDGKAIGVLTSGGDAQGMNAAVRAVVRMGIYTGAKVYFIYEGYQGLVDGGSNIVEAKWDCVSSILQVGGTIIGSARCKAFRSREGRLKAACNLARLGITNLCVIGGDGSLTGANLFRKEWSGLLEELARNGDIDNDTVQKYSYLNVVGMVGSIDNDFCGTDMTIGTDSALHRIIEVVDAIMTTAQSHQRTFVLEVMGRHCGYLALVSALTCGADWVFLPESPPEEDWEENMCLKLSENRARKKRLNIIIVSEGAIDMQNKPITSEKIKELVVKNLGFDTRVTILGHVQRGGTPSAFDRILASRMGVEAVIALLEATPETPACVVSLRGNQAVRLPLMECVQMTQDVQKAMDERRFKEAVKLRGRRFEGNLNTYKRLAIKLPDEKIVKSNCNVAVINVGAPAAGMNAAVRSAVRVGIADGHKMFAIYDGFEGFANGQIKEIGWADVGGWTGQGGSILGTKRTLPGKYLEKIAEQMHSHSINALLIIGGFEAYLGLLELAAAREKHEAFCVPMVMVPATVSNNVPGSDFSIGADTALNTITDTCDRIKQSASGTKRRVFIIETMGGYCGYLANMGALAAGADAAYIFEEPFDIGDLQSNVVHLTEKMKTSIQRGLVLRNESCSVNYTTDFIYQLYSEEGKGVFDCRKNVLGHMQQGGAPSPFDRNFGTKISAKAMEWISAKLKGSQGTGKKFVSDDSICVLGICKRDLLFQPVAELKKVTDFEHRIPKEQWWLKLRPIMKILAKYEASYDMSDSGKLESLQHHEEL

[4] = biological target: T6, alanine, serine, cysteine-preferring transporter 2 (ASCT2) (mouse, UniProt P51912 1-553); test: IP of Sirt2, LC-MS/MS, activated WT mouse CD3+ T cell extracts
T6 construct: Endogenous protein in lysate; also called Glutamine transporter ASCT2; ACST2
T6 sequence (looked up): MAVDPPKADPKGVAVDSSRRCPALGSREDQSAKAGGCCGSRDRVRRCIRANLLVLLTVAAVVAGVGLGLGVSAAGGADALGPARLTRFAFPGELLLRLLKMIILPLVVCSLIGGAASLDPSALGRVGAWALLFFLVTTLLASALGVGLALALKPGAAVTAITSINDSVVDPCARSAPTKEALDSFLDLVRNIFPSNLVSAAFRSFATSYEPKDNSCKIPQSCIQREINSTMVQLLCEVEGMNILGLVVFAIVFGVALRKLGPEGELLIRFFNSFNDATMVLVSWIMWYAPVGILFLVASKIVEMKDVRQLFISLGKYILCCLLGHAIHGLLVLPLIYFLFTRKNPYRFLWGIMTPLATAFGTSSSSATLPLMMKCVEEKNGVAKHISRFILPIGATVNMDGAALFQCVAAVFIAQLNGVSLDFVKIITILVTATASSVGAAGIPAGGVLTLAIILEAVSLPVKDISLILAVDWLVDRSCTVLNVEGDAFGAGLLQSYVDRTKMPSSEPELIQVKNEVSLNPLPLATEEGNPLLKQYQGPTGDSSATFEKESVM

[5] = biological target: succinate dehydrogenase subunit alpha (SDHA) (mouse, UniProt Q8K2B3 43-664); test: as above
Hexokinase 1 (HK1) = biological target: T7, Hexokinase 1 (HK1) (mouse, UniProt P17710-3 1-918, limits assumed); test: co-IP with anti-Sirt2, immunoblot, activated WT mouse CD3+ T cell extracts (FIG. 3B)
T7 construct: Endogenous protein in lysate
T7 sequence (looked up): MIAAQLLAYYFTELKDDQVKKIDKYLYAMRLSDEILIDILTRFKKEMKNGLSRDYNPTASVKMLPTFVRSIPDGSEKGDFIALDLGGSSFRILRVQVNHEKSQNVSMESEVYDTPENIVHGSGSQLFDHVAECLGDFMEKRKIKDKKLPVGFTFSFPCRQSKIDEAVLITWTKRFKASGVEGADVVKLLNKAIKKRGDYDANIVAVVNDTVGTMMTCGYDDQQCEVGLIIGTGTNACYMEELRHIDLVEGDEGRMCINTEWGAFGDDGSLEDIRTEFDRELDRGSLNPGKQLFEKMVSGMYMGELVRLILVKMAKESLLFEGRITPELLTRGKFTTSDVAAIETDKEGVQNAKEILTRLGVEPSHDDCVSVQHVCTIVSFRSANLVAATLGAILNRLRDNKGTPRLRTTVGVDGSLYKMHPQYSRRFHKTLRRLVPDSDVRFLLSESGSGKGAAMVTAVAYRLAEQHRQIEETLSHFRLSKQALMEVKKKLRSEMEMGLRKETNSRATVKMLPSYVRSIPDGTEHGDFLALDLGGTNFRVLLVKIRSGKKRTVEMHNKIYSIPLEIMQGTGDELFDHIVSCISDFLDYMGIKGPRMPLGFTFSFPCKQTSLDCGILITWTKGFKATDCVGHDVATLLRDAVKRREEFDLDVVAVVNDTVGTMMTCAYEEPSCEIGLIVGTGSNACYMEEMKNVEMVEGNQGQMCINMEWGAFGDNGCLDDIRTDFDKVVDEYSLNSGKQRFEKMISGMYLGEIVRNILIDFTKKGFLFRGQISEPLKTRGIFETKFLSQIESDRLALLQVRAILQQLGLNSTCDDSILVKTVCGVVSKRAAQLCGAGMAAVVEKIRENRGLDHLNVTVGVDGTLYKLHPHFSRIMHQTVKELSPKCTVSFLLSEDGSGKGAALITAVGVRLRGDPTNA

Measured: binding result

Chain of succinate dehydrogenase subunit alpha (SDHA) (Q8K2B3 43-664 limits assumed): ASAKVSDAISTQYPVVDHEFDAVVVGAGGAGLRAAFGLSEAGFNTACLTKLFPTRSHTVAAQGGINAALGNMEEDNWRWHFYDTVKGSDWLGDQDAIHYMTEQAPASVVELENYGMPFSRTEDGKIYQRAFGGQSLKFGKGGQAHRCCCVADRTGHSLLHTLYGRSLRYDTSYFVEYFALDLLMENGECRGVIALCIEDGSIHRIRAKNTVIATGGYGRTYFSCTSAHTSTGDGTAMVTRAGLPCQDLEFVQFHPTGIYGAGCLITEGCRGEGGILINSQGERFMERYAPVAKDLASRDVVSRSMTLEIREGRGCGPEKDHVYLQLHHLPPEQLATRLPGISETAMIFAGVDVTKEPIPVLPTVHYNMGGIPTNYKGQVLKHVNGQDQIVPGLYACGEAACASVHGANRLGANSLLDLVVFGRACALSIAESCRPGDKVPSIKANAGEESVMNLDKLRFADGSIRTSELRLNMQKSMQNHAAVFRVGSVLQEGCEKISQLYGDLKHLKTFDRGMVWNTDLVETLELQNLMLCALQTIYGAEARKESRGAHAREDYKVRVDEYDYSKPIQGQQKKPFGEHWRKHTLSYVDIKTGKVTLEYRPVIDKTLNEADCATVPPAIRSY
T1 sequence (P52480 whole entry): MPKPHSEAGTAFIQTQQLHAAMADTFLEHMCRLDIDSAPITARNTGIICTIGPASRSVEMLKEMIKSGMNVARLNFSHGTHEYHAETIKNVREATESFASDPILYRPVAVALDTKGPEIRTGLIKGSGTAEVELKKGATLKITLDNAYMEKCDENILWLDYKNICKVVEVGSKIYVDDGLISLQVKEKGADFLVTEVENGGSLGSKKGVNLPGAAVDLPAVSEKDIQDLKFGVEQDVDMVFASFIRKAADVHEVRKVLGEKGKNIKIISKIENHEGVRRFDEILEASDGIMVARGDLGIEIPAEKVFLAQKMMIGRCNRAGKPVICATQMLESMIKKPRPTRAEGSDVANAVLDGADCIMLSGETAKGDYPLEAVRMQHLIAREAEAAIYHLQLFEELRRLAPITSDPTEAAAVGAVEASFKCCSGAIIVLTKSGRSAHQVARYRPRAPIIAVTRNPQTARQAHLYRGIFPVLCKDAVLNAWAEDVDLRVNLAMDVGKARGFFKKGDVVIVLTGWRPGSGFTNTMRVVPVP

B1: succinate-CoA ligase alpha subunit (SUCLG1) (enzyme)
chain: not shown
notes: also called succinyl-CoA ligase alpha subunit; Succinyl-CoA Ligase
binds: Sirt2

B2: aldolase A (ALDOA) (enzyme, mouse, UniProt P05064 2-364, looked up)
chain: PHPYPALTPEQKKELSDIAHRIVAPGKGILAADESTGSIAKRLQSIGTENTEENRRFYRQLLLTADDRVNPCIGGVILFHETLYQKADDGRPFPQVIKSKGGVVGIKVDKGVVPLAGTNGETTTQGLDGLSERCAQYKKDGADFAKWRCVLKIGEHTPSALAIMENANVLARYASICQQNGIVPIVEPEILPDGDHDLKRCQYVTEKVLAAVYKALSDHHVYLEGTLLKPNMVTPGHACTQKFSNEEIAMATVTALRRTVPPAVTGVTFLSGGQSEEEASINLNAINKCPLLKPWALTFSYGRALQASALKAWGGKKENLKAAQEEYIKRALANSLACQGKYTPSGQSGAAASESLFISNHAY
notes: also called Aldolase 1
binds: Sirt2

B3
not listed: Sirt2
binds: all other assays above
